Source: patent publication US20260049137A1 (JANUX THERAPEUTICS, published 2026)
Read-outs that look alike come from different tables or passages of the source.

How the values were obtained:
[1] = target: T1, TROP2 on TROP2 positive NCI-H292 or HCT116 tumor cells (UniProt P09758 27-323, limits assumed); assay: cell-based or functional assay
T1 sequence (looked up): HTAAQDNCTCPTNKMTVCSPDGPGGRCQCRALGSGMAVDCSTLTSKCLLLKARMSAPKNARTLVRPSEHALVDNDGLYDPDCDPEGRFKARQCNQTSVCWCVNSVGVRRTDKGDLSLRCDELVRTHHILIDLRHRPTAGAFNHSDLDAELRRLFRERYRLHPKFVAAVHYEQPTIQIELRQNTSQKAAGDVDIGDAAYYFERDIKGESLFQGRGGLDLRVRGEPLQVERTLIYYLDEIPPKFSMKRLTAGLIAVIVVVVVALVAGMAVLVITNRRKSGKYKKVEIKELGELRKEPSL

[2] = target: T1, TROP2 on TROP2 positive NCI-H292 or …; assay: cell-based or functional assay; remark: listed apart in the source
[3] = target: T1, TROP2 on TROP2 positive NCI-H292 or …; assay: cell-based or functional assay; remark: listed apart in the source
[4] = target: T1, TROP2 on TROP2 positive NCI-H292 or …; assay: cell-based or functional assay; remark: listed apart in the source
[5] = target: T1, TROP2 on TROP2 positive NCI-H292 or …; assay: cell-based or functional assay; remark: listed apart in the source
[6] = target: T2, cynomolgus monkey TROP2 on recombinant HEK293 cells (cynomolgus monkey, UniProt A0A2K5UE71 27-323); assay: cell-based or functional assay
T2 sequence: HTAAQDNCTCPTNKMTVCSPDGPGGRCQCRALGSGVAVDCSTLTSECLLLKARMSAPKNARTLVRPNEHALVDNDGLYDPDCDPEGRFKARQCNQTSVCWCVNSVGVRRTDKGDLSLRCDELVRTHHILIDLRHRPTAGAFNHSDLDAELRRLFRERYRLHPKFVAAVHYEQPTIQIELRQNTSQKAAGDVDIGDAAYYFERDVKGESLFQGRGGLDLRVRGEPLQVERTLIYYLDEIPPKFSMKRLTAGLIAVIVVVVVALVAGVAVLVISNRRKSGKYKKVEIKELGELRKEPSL

[7] = target: T3, human CD3ε-biotin (biotinylated CD3ε) (human, UniProt P07766 23-126, limits assumed, biotinylated); assay: ELISA: biotinylated CD3 captured on neutravidin coated plates, HRP secondary antibody, OD 450 nm
T3 construct: also called CD3e-bio; CD3e-biotin
T3 sequence (P07766 23-126 limits assumed): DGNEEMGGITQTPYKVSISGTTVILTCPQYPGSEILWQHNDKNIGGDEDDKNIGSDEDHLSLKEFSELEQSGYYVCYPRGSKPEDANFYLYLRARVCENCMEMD
Method: (§1) The TCE constructs diluted in buffer were then added to the antigen coated plates. Binding was detected using a standard horse radish peroxidase secondary antibody. The concentration of the TCE required to achieve 50% maximal signal (EC₅₀) was calculated using Graphpad Prism software.

[8] = target: T4, human TROP2-biotin (biotinylated TROP2) (human, UniProt P09758 27-274, limits assumed, biotinylated); assay: ELISA: biotinylated TROP2 captured on neutravidin coated plates, HRP secondary antibody, OD 450 nm
T4 construct: also called hTROP2-Biotin
T4 sequence (looked up): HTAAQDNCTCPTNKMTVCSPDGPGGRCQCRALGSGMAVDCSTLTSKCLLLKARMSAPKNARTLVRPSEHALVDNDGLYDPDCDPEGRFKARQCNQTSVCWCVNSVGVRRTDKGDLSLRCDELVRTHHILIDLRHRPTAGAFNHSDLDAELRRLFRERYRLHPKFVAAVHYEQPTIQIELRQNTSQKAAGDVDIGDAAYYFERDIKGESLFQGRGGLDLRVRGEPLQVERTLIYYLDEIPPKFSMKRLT
Method: as §1

B1: TCE-1: anti-CD3 scFv wt + linker + anti-TROP2 HC wt, with anti-TROP2 LC wt (bispecific antibody)
light: DIQLTQSPSSLSASVGDRVSITCKASQDVSIAVAWYQQKPGKAPKLLIYSASYRYTGVPDRFSGSGSGTDFTLTISSLQPEDFAVYYCQQHYITPLTFGAGTKVEIKRTVAAPSVFIFPPSDEQLKSGTASVVCLLNNFYPREAKVQWKVDNALQSGNSQESVTEQDSKDSTYSLSSTLTLSKADYEKHKVYACEVTHQGLSSPVTKSFNRGEC
heavy: not shown
H292 Cytotox EC50 (pM) [1]: 0.7 pM | H292 Cytotox EC50 (pM) [2]: 0.7 pM | H292 Cytotox EC50 (pM) [3]: 0.7 pM

B2: TCE-27: anti-CD3 scFv + linker + anti-TROP2 HC wt, with anti-TROP2 LC wt (bispecific antibody)
light: DIQLTQSPSSLSASVGDRVSITCKASQDVSIAVAWYQQKPGKAPKLLIYSASYRYTGVPDRFSGSGSGTDFTLTISSLQPEDFAVYYCQQHYITPLTFGAGTKVEIKRTVAAPSVFIFPPSDEQLKSGTASVVCLLNNFYPREAKVQWKVDNALQSGNSQESVTEQDSKDSTYSLSSTLTLSKADYEKHKVYACEVTHQGLSSPVTKSFNRGEC
heavy: EVQLVESGGGLVQPGGSLKLSCAASGFTFNKYAMNWVRQASGKGLEWVGRIRSKYNNYATYYADSVKDRFTISRDDSKNTAYLQMNSLKTEDTAVYYCVRHGNFGNSYISYWAYWGQGTLVTVSSGGGGSGGGGSGGGGSQTVVTQEPSFSVSPGGTVTLTCRSSTGAVTSGNYANWVQQTPGQAPRGLIGGTKFLAPGVPDRFSGSILGNKAALTITGAQADDESDYYCVLWYSNRWVFGGGTKLTVLGGGGSQVQLQQSGSELKKPGASVKVSCKASGYTFTNYGMNWVKQAPGQGLKWMGWINTYTGEPTYTDDFKGRFAFSLDTSVSTAYLQISSLKADDTAVYFCARGGFGSSYWYFDVWGQGSLVTVSSASTKGPSVFPLAPSSKSTSGGTAALGCLVKDYFPEPVTVSWNSGALTSGVHTFPAVLQSSGLYSLSSVVTVPSSSLGTQTYICNVNHKPSNTKVDKKVEPKSC
H292 Cytotox EC50 (pM) [3]: 0.5 pM

B3: TCE-29: anti-CD3 scFv wt + linker + anti-TROP2 (F108A) HC, with anti-TROP2 LC wt (bispecific antibody)
light: DIQLTQSPSSLSASVGDRVSITCKASQDVSIAVAWYQQKPGKAPKLLIYSASYRYTGVPDRFSGSGSGTDFTLTISSLQPEDFAVYYCQQHYITPLTFGAGTKVEIKRTVAAPSVFIFPPSDEQLKSGTASVVCLLNNFYPREAKVQWKVDNALQSGNSQESVTEQDSKDSTYSLSSTLTLSKADYEKHKVYACEVTHQGLSSPVTKSFNRGEC
heavy: not shown
HCT116 Cytotox EC50 (pM) [4]: 109 pM | H292 Cytotox EC50 (pM) [5]: 5 pM | CynoTROP2+ HEK293 cells Cytotox EC50 (pM) [6]: 0.2 pM

B4: TCE-24: anti-CD3 scFv (W238A) + linker + anti-TROP2 HC wt, with anti-TROP2 LC wt (bispecific antibody)
light: DIQLTQSPSSLSASVGDRVSITCKASQDVSIAVAWYQQKPGKAPKLLIYSASYRYTGVPDRFSGSGSGTDFTLTISSLQPEDFAVYYCQQHYITPLTFGAGTKVEIKRTVAAPSVFIFPPSDEQLKSGTASVVCLLNNFYPREAKVQWKVDNALQSGNSQESVTEQDSKDSTYSLSSTLTLSKADYEKHKVYACEVTHQGLSSPVTKSFNRGEC
heavy: not shown
H292 Cytotox EC50 (pM) [2]: > 1000 pM

B5: TCE-49 (bispecific antibody)
light chain (anti-TROP2 LC wt): DIQLTQSPSSLSASVGDRVSITCKASQDVSIAVAWYQQKPGKAPKLLIYSASYRYTGVPDRFSGSGSGTDFTLTISSLQPEDFAVYYCQQHYITPLTFGAGTKVEIKRTVAAPSVFIFPPSDEQLKSGTASVVCLLNNFYPREAKVQWKVDNALQSGNSQESVTEQDSKDSTYSLSSTLTLSKADYEKHKVYACEVTHQGLSSPVTKSFNRGEC
heavy chain (anti-CD3 scFv N236A + linker + anti-TROP2 F108A HC): not shown
notes: also called TCE-49: anti-CD3 scFv (N236A) + linker + anti-TROP2 (F108A) HC, with anti-TROP2 LC wt
EC50 [7]: 0.23 nM | EC50 [8]: 0.87 nM

B6: TCE-30: anti-CD3 scFv (H101A) + linker + anti-TROP2 (F108A) HC, with anti-TROP2 LC wt (bispecific antibody)
light: DIQLTQSPSSLSASVGDRVSITCKASQDVSIAVAWYQQKPGKAPKLLIYSASYRYTGVPDRFSGSGSGTDFTLTISSLQPEDFAVYYCQQHYITPLTFGAGTKVEIKRTVAAPSVFIFPPSDEQLKSGTASVVCLLNNFYPREAKVQWKVDNALQSGNSQESVTEQDSKDSTYSLSSTLTLSKADYEKHKVYACEVTHQGLSSPVTKSFNRGEC
heavy: not shown
CynoTROP2+ HEK293 cells Cytotox EC50 (pM) [6]: 1 pM

B7: TCE-48 (bispecific antibody)
light chain (anti-TROP2 LC wt): DIQLTQSPSSLSASVGDRVSITCKASQDVSIAVAWYQQKPGKAPKLLIYSASYRYTGVPDRFSGSGSGTDFTLTISSLQPEDFAVYYCQQHYITPLTFGAGTKVEIKRTVAAPSVFIFPPSDEQLKSGTASVVCLLNNFYPREAKVQWKVDNALQSGNSQESVTEQDSKDSTYSLSSTLTLSKADYEKHKVYACEVTHQGLSSPVTKSFNRGEC
heavy chain (anti-CD3 scFv L232A + linker + anti-TROP2 F108A HC): not shown
notes: also called TCE-48: anti-CD3 scFv (L232A) + linker + anti-TROP2 (F108A) HC, with anti-TROP2 LC wt
EC50 [7]: 0.36 nM | EC50 [8]: 1.3 nM

B8: TCE-33: anti-CD3 scFv + linker + anti-TROP2 (F108A) HC, with anti-TROP2 LC wt (bispecific antibody)
light: DIQLTQSPSSLSASVGDRVSITCKASQDVSIAVAWYQQKPGKAPKLLIYSASYRYTGVPDRFSGSGSGTDFTLTISSLQPEDFAVYYCQQHYITPLTFGAGTKVEIKRTVAAPSVFIFPPSDEQLKSGTASVVCLLNNFYPREAKVQWKVDNALQSGNSQESVTEQDSKDSTYSLSSTLTLSKADYEKHKVYACEVTHQGLSSPVTKSFNRGEC
heavy: EVQLVESGGGLVQPGGSLKLSCAASGFTFNKYAMNWVRQASGKGLEWVGRIRSKYNNYATYYADSVKDRFTISRDDSKNTAYLQMNSLKTEDTAVYYCVRHGNFGNSYISYWAYWGQGTLVTVSSGGGGSGGGGSGGGGSQTVVTQEPSFSVSPGGTVTLTCRSSTGAVTSGNYANWVQQTPGQAPRGLIGGTKFLAPGVPDRFSGSILGNKAALTITGAQADDESDYYCVLWYSNRWVFGGGTKLTVLGGGGSQVQLQQSGSELKKPGASVKVSCKASGYTFTNYGMNWVKQAPGQGLKWMGWINTYTGEPTYTDDFKGRFAFSLDTSVSTAYLQISSLKADDTAVYFCARGGFGSSYWYADVWGQGSLVTVSSASTKGPSVFPLAPSSKSTSGGTAALGCLVKDYFPEPVTVSWNSGALTSGVHTFPAVLQSSGLYSLSSVVTVPSSSLGTQTYICNVNHKPSNTKVDKKVEPKSC
HCT116 Cytotox EC50 (pM) [4]: 73 pM | H292 Cytotox EC50 (pM) [5]: 3 pM

B9: TCE-19: anti-CD3 scFv (W233A) + linker + anti-TROP2 HC wt, with anti-TROP2 LC wt (bispecific antibody)
light: DIQLTQSPSSLSASVGDRVSITCKASQDVSIAVAWYQQKPGKAPKLLIYSASYRYTGVPDRFSGSGSGTDFTLTISSLQPEDFAVYYCQQHYITPLTFGAGTKVEIKRTVAAPSVFIFPPSDEQLKSGTASVVCLLNNFYPREAKVQWKVDNALQSGNSQESVTEQDSKDSTYSLSSTLTLSKADYEKHKVYACEVTHQGLSSPVTKSFNRGEC
heavy: not shown
H292 Cytotox EC50 (pM) [2]: > 1000 pM

B10: TCE-28: anti-CD3 scFv + linker + anti-TROP2 HC wt, with anti-TROP2 LC wt (bispecific antibody)
light: DIQLTQSPSSLSASVGDRVSITCKASQDVSIAVAWYQQKPGKAPKLLIYSASYRYTGVPDRFSGSGSGTDFTLTISSLQPEDFAVYYCQQHYITPLTFGAGTKVEIKRTVAAPSVFIFPPSDEQLKSGTASVVCLLNNFYPREAKVQWKVDNALQSGNSQESVTEQDSKDSTYSLSSTLTLSKADYEKHKVYACEVTHQGLSSPVTKSFNRGEC
heavy: not shown
H292 Cytotox EC50 (pM) [3]: 2.1 pM

B11: TCE-26: anti-CD3 scFv (F240A) + linker + anti-TROP2 HC wt, with anti-TROP2 LC wt (bispecific antibody)
light: DIQLTQSPSSLSASVGDRVSITCKASQDVSIAVAWYQQKPGKAPKLLIYSASYRYTGVPDRFSGSGSGTDFTLTISSLQPEDFAVYYCQQHYITPLTFGAGTKVEIKRTVAAPSVFIFPPSDEQLKSGTASVVCLLNNFYPREAKVQWKVDNALQSGNSQESVTEQDSKDSTYSLSSTLTLSKADYEKHKVYACEVTHQGLSSPVTKSFNRGEC
heavy: not shown
H292 Cytotox EC50 (pM) [2]: 20 pM

B12: TCE-32: anti-CD3 scFv (F240A) + linker + anti-TROP2 (F108A) HC, with anti-TROP2 LC wt (bispecific antibody)
light: DIQLTQSPSSLSASVGDRVSITCKASQDVSIAVAWYQQKPGKAPKLLIYSASYRYTGVPDRFSGSGSGTDFTLTISSLQPEDFAVYYCQQHYITPLTFGAGTKVEIKRTVAAPSVFIFPPSDEQLKSGTASVVCLLNNFYPREAKVQWKVDNALQSGNSQESVTEQDSKDSTYSLSSTLTLSKADYEKHKVYACEVTHQGLSSPVTKSFNRGEC
heavy: not shown
HCT116 Cytotox EC50 (pM) [4]: > 3000 pM | CynoTROP2+ HEK293 cells Cytotox EC50 (pM) [6]: 5 pM

B13: TCE-35: anti-CD3 scFv wt + linker + anti-TROP2 (D109A) HC, with anti-TROP2 LC wt (bispecific antibody)
light: DIQLTQSPSSLSASVGDRVSITCKASQDVSIAVAWYQQKPGKAPKLLIYSASYRYTGVPDRFSGSGSGTDFTLTISSLQPEDFAVYYCQQHYITPLTFGAGTKVEIKRTVAAPSVFIFPPSDEQLKSGTASVVCLLNNFYPREAKVQWKVDNALQSGNSQESVTEQDSKDSTYSLSSTLTLSKADYEKHKVYACEVTHQGLSSPVTKSFNRGEC
heavy: not shown
H292 Cytotox EC50 (pM) [5]: 1 pM | CynoTROP2+ HEK293 cells Cytotox EC50 (pM) [6]: 0.1 pM
